{
  "source": "patent US20240166765A1",
  "about": "“INFLAMMATORY DISEASE TREATMENT USING ANTI-TISSUE FACTOR ANTIBODIES” (Iconic Therapeutics LLC, priority 2020, published 2024)",
  "experiment_in_all_cases": "Epitope binning, chimeric TF construct mapping (live cell staining assay)",
  "format_in_all_cases": "binding",
  "key": {"[1]": {"biological_target": "T1, chimeric human-rat TF constructs expressed on HEK293 cells (Homo sapiens, UniProt P13726, E160K/E162S/F148Y/L140I/N156K/R163F/S147K/T144V/V151G/V155L)", "T1 construct": "expressed in transfected cells; host or cells: HEK293", "conditions": "construct h108-132_r (10); human segment replaced by rat segment", "description": "(§1) To establish binding of the anti-human TF antibodies to the various TF constructs, HEK293 cells were transfected with a DNA plasmid that co-expresses the TF construct and a green fluorescent protein marker. For a subset of the antibodies, an antibody titration (a 12-point 1:3 dilution series starting at 250 nM) was evaluated on select TF constructs (See international PCT application PCT/US2019/012427 and U.S. utility application Ser. No. 16/959,652, incorporated herein by reference in their entirety). […] Two days after transfection, cells were collected from the tissue culture plate, stained with 15 μg/ml of the indicated anti-TF antibody, washed, stained with anti-human IgG-Fc Alexa Fluor 647 polyclonal antibody, washed, and stained with the viability dye 4′,6-Diamidino-2-Phenylindole, Dihydrochloride. Upon acquisition of 80,000 live events on a flow cytometer, live cells marked with the fluorescent marker were analyzed for the degree of staining by the anti-TF antibody. […] As used herein, the term “live cell staining assay” refers to the antibody binding assay used in this example.\n(§2) When “Percentage antibody binding to TF construct relative to hTF” in Tables 51 and 52 was less than 50%, the antibody was considered a non-binder (0) in Tables 53 and 54."}, "[2]": {"biological_target": "T2, chimeric human-rat TF constructs expressed on HEK293 cells (Homo sapiens, UniProt P13726, A112W/A121H/D76N/DEL115-116/DUP123-123/E127T/E131K/E137D/E58Q/F108L/F82T/G113R/G75R/INS118HGKETLF/K100N/K47I/K73R/L104E/L125P/L136R/N139K/N50D/P130R/Q101W/Q64Y/S120T/S129A/S79Y/T133L/T72D/V62T/V65T/Y110V/Y126F/Y83G)", "T2 construct": "expressed in transfected cells; host or cells: HEK293", "conditions": "construct h1-107_r (52); human segment replaced by rat segment", "description": "as §1, §2"}, "[3]": {"biological_target": "T3, chimeric human-rat TF constructs expressed on HEK293 cells (Homo sapiens, UniProt P13726, A112W/A121H/DEL115-116/DUP123-123/E127T/E131K/E137D/G113R/INS118HGKETLF/L125P/L136R/N139K/P130R/S120T/S129A/T133L/Y110V/Y126F)", "T3 construct": "expressed in transfected cells; host or cells: HEK293", "conditions": "construct h78-107_r.v2 (27); human segment replaced by rat segment", "description": "as §1, §2"}, "[4]": {"biological_target": "T4, chimeric human-rat TF constructs expressed on HEK293 cells (Homo sapiens, UniProt P13726, K197R/S192D/S195T)", "T4 construct": "expressed in transfected cells; host or cells: HEK293", "conditions": "construct h159-166_r (3); human segment replaced by rat segment", "description": "as §1, §2"}, "[5]": {"biological_target": "T5, chimeric human-rat TF constructs expressed on HEK293 cells (Homo sapiens, UniProt P13726, E58Q/K47I/N50D/Q64Y/V62T/V65T)", "T5 construct": "expressed in transfected cells; host or cells: HEK293", "conditions": "construct h1-38_r (14); human segment replaced by rat segment", "description": "as §1, §2"}, "[6]": {"biological_target": "T6, chimeric human-rat TF constructs expressed on HEK293 cells (Homo sapiens, UniProt P13726, D76N/E58Q/F108L/F82T/G75R/K100N/K47I/K73R/L104E/N50D/Q101W/Q64Y/S79Y/T72D/V62T/V65T/Y83G)", "T6 construct": "expressed in transfected cells; host or cells: HEK293", "conditions": "construct h1-77_r (25); human segment replaced by rat segment", "description": "as §1, §2"}, "[7]": {"system": "chimeric human-rat TF constructs expressed on HEK293 cells", "description": "as §1, §2"}, "[8]": {"biological_target": "T7, chimeric human-rat TF constructs expressed on HEK293 cells (Homo sapiens, UniProt P13726, D177Q/I184G/K181N/N170G/R168K/S174T/T186I/W190R/Y188T)", "T7 construct": "expressed in transfected cells; host or cells: HEK293", "conditions": "construct h133-158_r (9); human segment replaced by rat segment", "description": "as §1, §2"}, "[9]": {"biological_target": "T8, chimeric human-rat TF constructs expressed on HEK293 cells (Homo sapiens, UniProt P13726, N203H/T229K)", "T8 construct": "expressed in transfected cells; host or cells: HEK293", "conditions": "construct hTF_N171H_T197K", "description": "as §1, §2"}, "[10]": {"biological_target": "T9, chimeric human-rat TF constructs expressed on HEK293 cells (Homo sapiens, UniProt P13726, I184G/T186I/W190R/Y188T)", "T9 construct": "expressed in transfected cells; host or cells: HEK293", "conditions": "construct h152-158_r (4); human segment replaced by rat segment", "description": "as §1, §2"}, "[11]": {"biological_target": "T10, chimeric human-rat TF constructs expressed on HEK293 cells (Homo sapiens, UniProt P13726, K181N)", "T10 construct": "expressed in transfected cells; host or cells: HEK293", "description": "as §1, §2"}, "[12]": {"biological_target": "T11, chimeric human-rat TF constructs expressed on HEK293 cells (Homo sapiens, UniProt P13726, A200N/D212E/E215V/K197R/K201T/N203H/N216S/S192D/S195T/S220F/V221A)", "T11 construct": "expressed in transfected cells; host or cells: HEK293", "conditions": "construct h159-189_r (11); human segment replaced by rat segment", "description": "as §1, §2"}, "[13]": {"biological_target": "T12, chimeric human-rat TF constructs expressed on HEK293 cells (Homo sapiens, UniProt P13726, E127T/E131K/E137D/L136R/N139K/P130R/S129A/T133L/Y126F)", "T12 construct": "expressed in transfected cells; host or cells: HEK293", "conditions": "construct h94-107_r (9); human segment replaced by rat segment", "description": "as §1, §2"}, "[14]": {"biological_target": "T13, chimeric human-rat TF constructs expressed on HEK293 cells (Homo sapiens, UniProt P13726, P226F)", "T13 construct": "expressed in transfected cells; host or cells: HEK293", "conditions": "construct h190-219_r (16); human segment replaced by rat segment", "description": "as §1, §2"}, "[15]": {"biological_target": "T14, chimeric human-rat TF constructs expressed on HEK293 cells (Homo sapiens, UniProt P13726, D177Q/S174T)", "T14 construct": "expressed in transfected cells; host or cells: HEK293", "conditions": "construct h140-145_r (2); human segment replaced by rat segment", "description": "as §1, §2"}},
  "data": [
    {"substance": "TF-011", "values": [
      {"measurement": "Antibody binding to TF construct", "setting": "[1]", "value": "1 (between 50% and 150%, the antibody was considered a binder (1))"},
      {"measurement": "Antibody binding to TF construct", "setting": "[2]", "value": "0 (less than 50%, the antibody was considered a non-binder (0))"},
      {"measurement": "Antibody binding to TF construct", "setting": "[3]", "value": "0 (less than 50%, the antibody was considered a non-binder (0))"},
      {"measurement": "Antibody binding to TF construct", "setting": "[4]", "value": "1 (between 50% and 150%, the antibody was considered a binder (1))"},
      {"measurement": "Antibody binding to TF construct", "setting": "[5]", "value": "1 (between 50% and 150%, the antibody was considered a binder (1))"},
      {"measurement": "Antibody binding to TF construct", "setting": "[6]", "value": "0 (less than 50%, the antibody was considered a non-binder (0))"},
      {"measurement": "Antibody binding to TF construct", "setting": "[7]; Table 53, construct rTF", "value": "0 (less than 50%, the antibody was considered a non-binder (0))"},
      {"measurement": "Antibody binding to TF construct", "setting": "[7]; Table 54, construct rTF", "value": "0 (less than 50%, the antibody was considered a non-binder (0))"},
      {"measurement": "Constructs not bound by antibody", "setting": "[7]; chimeric human-rat TF constructs", "value": "rTF, h1-107_r, h1-77_r, h39-77_r, h78-107_r, h78-107_r.v2, h94-107_r"},
      {"measurement": "Antibody binding to TF construct", "setting": "[7]; construct h78-107_r (21), human segment replaced by rat segment", "value": "0 (less than 50%, the antibody was considered a non-binder (0))"},
      {"measurement": "Antibody binding to TF construct", "setting": "[7]; construct h108-219_r (46), human segment replaced by rat segment", "value": "1 (between 50% and 150%, the antibody was considered a binder (1))"},
      {"measurement": "Antibody binding to TF construct", "setting": "[7]; construct h159-219_r (27), human segment replaced by rat segment", "value": "1 (between 50% and 150%, the antibody was considered a binder (1))"},
      {"measurement": "Antibody binding to TF construct", "setting": "[7]; construct r141-194_h (rat amino acid segment replaced by human segment, 20 amino acid changes)", "value": "0 (less than 50%, the antibody was considered a non-binder (0))"},
      {"measurement": "Antibody binding to TF construct", "setting": "[8]", "value": "1 (between 50% and 150%, the antibody was considered a binder (1))"},
      {"measurement": "Antibody binding to TF construct", "setting": "[9]", "value": "1 (between 50% and 150%, the antibody was considered a binder (1))"},
      {"measurement": "Antibody binding to TF construct", "setting": "[10]", "value": "1 (between 50% and 150%, the antibody was considered a binder (1))"},
      {"measurement": "Antibody binding to TF construct", "setting": "[11]; construct h146-151_r (1), human segment replaced by rat segment", "value": "1 (between 50% and 150%, the antibody was considered a binder (1))"},
      {"measurement": "Antibody binding to TF construct", "setting": "[11]; construct hTF_K149N", "value": "1 (between 50% and 150%, the antibody was considered a binder (1))"},
      {"measurement": "Antibody binding to TF construct", "setting": "[12]", "value": "1 (between 50% and 150%, the antibody was considered a binder (1))"},
      {"measurement": "Antibody binding to TF construct", "setting": "[13]", "value": "0 (less than 50%, the antibody was considered a non-binder (0))"},
      {"measurement": "Antibody binding to TF construct", "setting": "[14]", "value": "1 (between 50% and 150%, the antibody was considered a binder (1))"},
      {"measurement": "Antibody binding to TF construct", "setting": "[15]", "value": "1 (between 50% and 150%, the antibody was considered a binder (1))"}
    ]}
  ]
}
